From paper PMC5150656

Assays:
[1] = biological target: ECFP fused myosin Va peptide containing three tandem IQ domains (IQ4-6) (mouse) (UniProt Q99104); assay: FRET or BRET; FRET 2-hybrid in live HEK293 cells co-expressing a CFP-tagged and a YFP-tagged partner; 3^3-FRET (EA) and E-FRET (ED) efficiencies from single cells, room temperature; stoichiometry from the ratio EA,max/ED,max
[2] = biological target: ECFP fused myosin Va peptide containing five tandem IQ domains (IQ2-6) (mouse) (UniProt Q99104); assay: as above
[3] = biological target: ECFP tagged myosin Va peptide containing a single IQ domain (IQ6) (mouse) (UniProt Q99104); assay: as above
[4] = biological target: CaV1.2 holochannel tagged with EYFP on its carboxy-terminus, co-expressed with β2a and α2δ subunits (UniProt P15381); assay: FRET or BRET; FRET 2-hybrid (3^3-FRET and E-FRET) in single live HEK293 cells, room temperature, elevated cytosolic Ca2+: Tyrode's bath with 10 mM Ca2+ and 4 μM ionomycin; relative (effective) dissociation constants Kd,EFF; stoichiometry ratio ν = EA,max/ED,max
[5] = biological target: EYFP tagged myosin Va five tandem IQ domain truncation (IQ2-6) (mouse) (UniProt Q99104); assay: FRET or BRET; FRET 2-hybrid (3^3-FRET and E-FRET) in single live HEK293 cells, room temperature, basal (resting) Ca2+: Tyrode's bath with 2 mM Ca2+; relative (effective) dissociation constants Kd,EFF; stoichiometry ratio ν = EA,max/ED,max
[6] = biological target: CaV1.2 holochannel tagged with EYFP on its carboxy-terminus, co-expressed with β2a and α2δ subunits (UniProt P15381); assay: as above
[7] = biological target: EYFP-tagged full length myosin Va neck domain peptide containing six IQ domains (IQ1-6) (mouse) (UniProt Q99104); assay: as above
[8] = biological target: EYFP tagged myosin Va peptide containing a single IQ domain (IQ6) (mouse) (UniProt Q99104); assay: as above
[9] = biological target: EYFP tagged myosin Va three tandem IQ domain peptide (IQ4-6) (mouse) (UniProt Q99104); assay: as above
[10] = biological target: EYFP tagged myosin Va two tandem IQ domain peptide (IQ5-6) (mouse) (UniProt Q99104); assay: as above
[11] = biological target: EYFP tagged myosin Va four tandem IQ domain peptide (IQ3-6) (mouse) (UniProt Q99104); assay: as above
[12] = biological target: NaV1.4 with EYFP fused to its carboxy-terminus (rat) (UniProt P15390); assay: as above
[13] = biological target: EYFP-fused myosin Va peptide containing four tandem IQ domains (IQ3-6) (mouse) (UniProt Q99104); assay: FRET or BRET; FRET 2-hybrid in live HEK293 cells co-expressing a CFP-tagged and a YFP-tagged partner; 3^3-FRET (EA) and E-FRET (ED) efficiencies from single cells, room temperature; stoichiometry from the ratio EA,max/ED,max
[14] = biological target: EYFP-tagged myosin Va peptide containing three tandem IQ domains (IQ4-6) (mouse) (UniProt Q99104); assay: as above
[15] = biological target: YFP-fused myosin Va peptide containing five tandem IQ motifs (IQ2-6) (mouse) (UniProt Q99104); assay: as above
[16] = biological target: EYFP-tagged myosin Va peptide containing two IQ domains (IQ5-6) (mouse) (UniProt Q99104); assay: as above
Chain of EYFP-tagged myosin Va peptide containing two IQ domains (IQ5-6) (mouse) (Q99104 862-920): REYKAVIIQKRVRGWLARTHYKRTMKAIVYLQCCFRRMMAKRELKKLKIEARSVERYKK

Chain of CaV1.2 holochannel tagged with EYFP on its carboxy-terminus, co-expressed with β2a and α2δ subunits (P15381 whole entry, stated change not applied, chain 1 of 3, other chains not shown, the tested form may be a part): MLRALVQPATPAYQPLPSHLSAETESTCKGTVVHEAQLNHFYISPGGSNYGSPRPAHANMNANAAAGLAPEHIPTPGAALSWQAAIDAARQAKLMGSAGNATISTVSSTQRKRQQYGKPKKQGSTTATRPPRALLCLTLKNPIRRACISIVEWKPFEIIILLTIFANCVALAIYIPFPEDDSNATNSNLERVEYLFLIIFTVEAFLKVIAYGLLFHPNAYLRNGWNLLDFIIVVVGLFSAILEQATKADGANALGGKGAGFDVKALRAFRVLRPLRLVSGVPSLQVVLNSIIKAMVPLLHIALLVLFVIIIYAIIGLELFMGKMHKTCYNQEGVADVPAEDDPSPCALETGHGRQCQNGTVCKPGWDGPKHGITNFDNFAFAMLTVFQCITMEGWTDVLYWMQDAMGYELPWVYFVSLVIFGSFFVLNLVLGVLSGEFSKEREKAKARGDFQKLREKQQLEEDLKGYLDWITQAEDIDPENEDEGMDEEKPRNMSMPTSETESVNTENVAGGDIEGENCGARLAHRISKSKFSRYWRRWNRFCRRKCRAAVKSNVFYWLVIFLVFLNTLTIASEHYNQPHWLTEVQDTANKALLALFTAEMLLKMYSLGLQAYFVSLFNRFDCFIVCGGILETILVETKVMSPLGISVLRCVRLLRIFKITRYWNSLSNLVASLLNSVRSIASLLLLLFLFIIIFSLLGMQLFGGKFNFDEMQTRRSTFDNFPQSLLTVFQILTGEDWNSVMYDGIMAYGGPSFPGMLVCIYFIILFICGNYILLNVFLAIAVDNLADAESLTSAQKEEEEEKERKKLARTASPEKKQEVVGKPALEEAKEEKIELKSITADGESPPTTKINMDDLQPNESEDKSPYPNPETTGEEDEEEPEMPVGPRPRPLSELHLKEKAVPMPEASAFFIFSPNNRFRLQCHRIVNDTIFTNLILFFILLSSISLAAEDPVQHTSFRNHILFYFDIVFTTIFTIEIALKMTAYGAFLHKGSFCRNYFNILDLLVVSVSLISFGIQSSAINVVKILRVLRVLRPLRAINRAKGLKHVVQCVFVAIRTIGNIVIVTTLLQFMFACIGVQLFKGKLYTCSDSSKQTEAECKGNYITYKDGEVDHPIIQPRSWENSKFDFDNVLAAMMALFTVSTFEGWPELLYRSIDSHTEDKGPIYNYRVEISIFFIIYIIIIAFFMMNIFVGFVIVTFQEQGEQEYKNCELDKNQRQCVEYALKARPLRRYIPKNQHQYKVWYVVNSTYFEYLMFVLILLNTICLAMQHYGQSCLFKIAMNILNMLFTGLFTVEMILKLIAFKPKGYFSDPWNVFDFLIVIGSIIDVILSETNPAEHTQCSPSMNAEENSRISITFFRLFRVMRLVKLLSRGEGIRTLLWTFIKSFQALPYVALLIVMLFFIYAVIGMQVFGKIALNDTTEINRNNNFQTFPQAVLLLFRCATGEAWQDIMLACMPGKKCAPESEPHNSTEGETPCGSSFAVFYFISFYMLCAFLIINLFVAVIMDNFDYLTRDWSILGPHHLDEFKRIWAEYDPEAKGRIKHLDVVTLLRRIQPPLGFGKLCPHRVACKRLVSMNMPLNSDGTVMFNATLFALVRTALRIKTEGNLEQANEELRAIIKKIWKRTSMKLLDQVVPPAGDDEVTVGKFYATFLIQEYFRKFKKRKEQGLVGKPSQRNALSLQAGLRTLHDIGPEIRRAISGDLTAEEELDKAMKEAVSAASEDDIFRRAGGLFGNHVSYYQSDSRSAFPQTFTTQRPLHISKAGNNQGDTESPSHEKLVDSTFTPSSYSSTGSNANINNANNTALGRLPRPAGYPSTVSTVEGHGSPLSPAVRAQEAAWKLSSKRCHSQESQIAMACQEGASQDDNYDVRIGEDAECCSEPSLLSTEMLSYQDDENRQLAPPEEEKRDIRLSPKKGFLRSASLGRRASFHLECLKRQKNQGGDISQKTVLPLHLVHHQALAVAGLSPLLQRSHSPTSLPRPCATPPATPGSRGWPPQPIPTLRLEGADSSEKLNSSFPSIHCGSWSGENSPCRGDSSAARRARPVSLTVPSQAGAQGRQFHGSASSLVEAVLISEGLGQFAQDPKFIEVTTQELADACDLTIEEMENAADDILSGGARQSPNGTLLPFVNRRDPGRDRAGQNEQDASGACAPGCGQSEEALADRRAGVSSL
Chain of CaV1.2 holochannel tagged with EYFP on its carboxy-terminus, co-expressed with β2a and α2δ subunits (P54290 25-1091, stated change not applied, chain 3 of 3, other chains not shown, further chain): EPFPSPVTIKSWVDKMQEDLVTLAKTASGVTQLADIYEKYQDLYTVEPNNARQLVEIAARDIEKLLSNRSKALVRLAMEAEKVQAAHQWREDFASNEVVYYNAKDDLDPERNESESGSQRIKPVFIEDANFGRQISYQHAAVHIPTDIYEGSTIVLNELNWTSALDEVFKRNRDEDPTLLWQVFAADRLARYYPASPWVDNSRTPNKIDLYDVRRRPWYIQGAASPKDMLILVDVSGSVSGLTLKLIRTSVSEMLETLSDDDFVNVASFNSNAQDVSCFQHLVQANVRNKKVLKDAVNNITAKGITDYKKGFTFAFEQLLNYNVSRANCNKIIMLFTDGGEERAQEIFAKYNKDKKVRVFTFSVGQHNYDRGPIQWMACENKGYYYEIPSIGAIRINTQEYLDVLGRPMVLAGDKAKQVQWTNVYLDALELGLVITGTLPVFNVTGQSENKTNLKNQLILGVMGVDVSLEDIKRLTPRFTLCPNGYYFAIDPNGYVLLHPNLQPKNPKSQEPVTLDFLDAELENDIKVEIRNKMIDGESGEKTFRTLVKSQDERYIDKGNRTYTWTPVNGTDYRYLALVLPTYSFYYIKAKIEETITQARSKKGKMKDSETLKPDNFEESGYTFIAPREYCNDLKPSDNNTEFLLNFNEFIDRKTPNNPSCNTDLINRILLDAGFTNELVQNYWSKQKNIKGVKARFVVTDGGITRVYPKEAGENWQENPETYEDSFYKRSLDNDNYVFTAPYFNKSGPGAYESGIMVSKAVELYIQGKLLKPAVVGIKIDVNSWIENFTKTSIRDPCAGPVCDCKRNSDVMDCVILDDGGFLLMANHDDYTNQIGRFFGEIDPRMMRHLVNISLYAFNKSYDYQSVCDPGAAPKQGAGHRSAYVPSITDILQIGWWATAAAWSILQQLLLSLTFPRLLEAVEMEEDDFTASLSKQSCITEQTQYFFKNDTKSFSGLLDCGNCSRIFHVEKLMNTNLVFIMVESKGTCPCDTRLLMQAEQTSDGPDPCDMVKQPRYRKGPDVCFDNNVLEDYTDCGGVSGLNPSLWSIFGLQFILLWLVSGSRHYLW
Chain of EYFP tagged myosin Va four tandem IQ domain peptide (IQ3-6) (mouse) (Q99104 814-920): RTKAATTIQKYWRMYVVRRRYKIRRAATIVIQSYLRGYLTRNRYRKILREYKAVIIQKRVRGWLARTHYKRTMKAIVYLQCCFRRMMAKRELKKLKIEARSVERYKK
Chain of EYFP-fused myosin Va peptide containing four tandem IQ domains (IQ3-6) (mouse) (Q99104 814-920): as above
Chain of YFP-fused myosin Va peptide containing five tandem IQ motifs (IQ2-6) (mouse) (Q99104 789-920): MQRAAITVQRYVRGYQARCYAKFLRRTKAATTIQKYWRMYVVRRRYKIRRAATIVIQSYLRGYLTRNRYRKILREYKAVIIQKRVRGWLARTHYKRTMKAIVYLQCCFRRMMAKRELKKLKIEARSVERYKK
Chain of ECFP fused myosin Va peptide containing five tandem IQ domains (IQ2-6) (mouse) (Q99104 789-920): as above
Chain of EYFP tagged myosin Va five tandem IQ domain truncation (IQ2-6) (mouse) (Q99104 789-920): as above
Chain of EYFP-tagged myosin Va peptide containing three tandem IQ domains (IQ4-6) (mouse) (Q99104 837-920): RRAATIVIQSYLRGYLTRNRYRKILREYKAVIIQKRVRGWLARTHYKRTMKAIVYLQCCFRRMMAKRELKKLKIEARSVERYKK
Chain of ECFP fused myosin Va peptide containing three tandem IQ domains (IQ4-6) (mouse) (Q99104 837-920): as above
Chain of EYFP tagged myosin Va three tandem IQ domain peptide (IQ4-6) (mouse) (Q99104 837-920): as above
Chain of EYFP-tagged full length myosin Va neck domain peptide containing six IQ domains (IQ1-6) (mouse) (Q99104 766-920): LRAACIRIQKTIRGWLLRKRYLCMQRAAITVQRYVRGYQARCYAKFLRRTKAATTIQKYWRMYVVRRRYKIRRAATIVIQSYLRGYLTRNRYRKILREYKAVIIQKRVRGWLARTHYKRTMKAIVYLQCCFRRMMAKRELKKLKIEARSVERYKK
Chain of EYFP tagged myosin Va peptide containing a single IQ domain (IQ6) (mouse) (Q99104 885-920): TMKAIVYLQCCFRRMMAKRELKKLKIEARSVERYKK
Chain of ECFP tagged myosin Va peptide containing a single IQ domain (IQ6) (mouse) (Q99104 885-920): as above
Chain of EYFP tagged myosin Va two tandem IQ domain peptide (IQ5-6) (mouse) (Q99104 862-920): as the sequence (Q99104 862-920) above

“EYFP-tagged calmodulin (from UniProt P0DP23 1-149) (natural protein)” was tested, and the stoichiometry N [1] was 3, the stoichiometry N [2] was 5 and the stoichiometry N [3] was 1.
“ECFP-tagged calmodulin (CaM) (from UniProt P0DP23 1-149) (natural protein)” was tested, and the stoichiometry N (CaM per channel (donors per acceptor)) [4] was 1.94, the stoichiometry N (CaM per peptide (donors per acceptor)) [5] was 5 and the Kd [6] was 115 nM. For the same substance, the stoichiometry N (CaM per channel (donors per acceptor)) [6] was 1.1, the stoichiometry N (CaM per peptide (donors per acceptor)) [7] was 5.91 and the stoichiometry N (CaM per peptide (donors per acceptor)) [8] was 0.97. It also gave a stoichiometry N (CaM per peptide (donors per acceptor)) [9] of 3, a stoichiometry N (CaM per peptide (donors per acceptor)) [10] of 2 and a stoichiometry N (CaM per peptide (donors per acceptor)) [11] of 4. The stoichiometry N (CaM per channel (donors per acceptor)) [12] was 1.14.
“ECFP-tagged calmodulin (from UniProt P0DP23 1-149) (natural protein)” showed a stoichiometry N [13] of 4, a stoichiometry N [14] of 3 and a stoichiometry N [15] of 5. For the same substance, the stoichiometry N [16] was 2.
